Measured values from publication PMC6802964 (2019).
Numbering of substitutions follows the chain as printed. Blank lines part the entries; values can stand above or below the binder they belong to.

What was measured:
Myo1 IQ12 = molecular target: T1, Myo1 IQ12 (Schizosaccharomyces pombe, UniProt Q9Y7Z8); test: FRET
T1 chain: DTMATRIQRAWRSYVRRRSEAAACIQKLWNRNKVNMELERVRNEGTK

[1] = molecular target: T2, CyPet–Myo1^IQ12S742D–YPet FRET reporter protein (S742D phosphomimetic) (S. pombe); test: FRET; second site (Kd2)
T2 chain: T1 chain with S19D

[2] = molecular target: T3, CyPet–Myo1^IQ12–YPet FRET reporter protein (S. pombe); test: FRET; first site (Kd1)
T3 chain: T1 chain

[3] = molecular target: T2, CyPet–Myo1^IQ12S742D–YPet FRET reporter …; test: FRET; first site (Kd1)
[4] = molecular target: T4, CyPet–Myo1^IQ1–YPet FRET reporter protein (S. pombe); test: FRET
T4 chain: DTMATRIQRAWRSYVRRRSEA

[5] = molecular target: T2, CyPet–Myo1^IQ12S742D–YPet FRET reporter …; test: FRET

Kd (Myo1 IQ12): 680 nM
B1: Cam1 (protein)
chain: not shown

Kd [1]: 540 nM
Kd [2]: 40 nM
Kd [3]: 90 nM
Kd [4]: 60 nM
B2: Cam1 (wild type, amino-terminally acetylated fission yeast calmodulin) (natural protein)
chain: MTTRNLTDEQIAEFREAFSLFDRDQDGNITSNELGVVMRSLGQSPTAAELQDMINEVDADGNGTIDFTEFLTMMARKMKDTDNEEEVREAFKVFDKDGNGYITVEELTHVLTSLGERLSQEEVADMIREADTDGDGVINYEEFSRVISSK
modifications: amino-terminally (Nt) acetylated

Kd (Myo1 IQ12): 1100 nM
B3: Cam2 (protein)
chain: MPASKEQTDEMKEAFVLYDIDKDGLIPTSHVGSVLRSLGINVTDAELAKLSNELGDAIDEKKFMSFVSNKLRETESEEEYIKAFRVFDKDNSGYIETAKFADYMKTLGEKLSDNEVQLMVQEADPTNSGSFDYYDFVQRIMAK

Kd [2]: 20 nM
Kd [5]: 250 nM
B4: Cam2 (calcium-insensitive calmodulin-like protein) (natural protein)
chain: B3 chain
